Target: Nb9-R59A (alpaca)
Test: BLI

Sequence of Nb9-R59A (alpaca) (heavy, as listed by the source): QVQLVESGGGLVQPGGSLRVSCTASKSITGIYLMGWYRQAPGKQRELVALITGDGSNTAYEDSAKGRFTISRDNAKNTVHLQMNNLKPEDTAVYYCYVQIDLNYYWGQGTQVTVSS

Substance “MERS-CoV RBD (from UniProt K9N5Q8) (domain or fragment)” has a Kd of 4.58 µM, a koff of 0.0624 s⁻¹ and a kon of 13600 M⁻¹ s⁻¹.

Source: article PMC11324105
